{"source": "patent WO2013078377A1", "key": {"[1]": {"biological_target": "human CD98 as used in ELISA, BIACORE and Octet assays (human) (UniProt P08195)", "sequence (P08195 206-630 limits assumed, form in doubt)": "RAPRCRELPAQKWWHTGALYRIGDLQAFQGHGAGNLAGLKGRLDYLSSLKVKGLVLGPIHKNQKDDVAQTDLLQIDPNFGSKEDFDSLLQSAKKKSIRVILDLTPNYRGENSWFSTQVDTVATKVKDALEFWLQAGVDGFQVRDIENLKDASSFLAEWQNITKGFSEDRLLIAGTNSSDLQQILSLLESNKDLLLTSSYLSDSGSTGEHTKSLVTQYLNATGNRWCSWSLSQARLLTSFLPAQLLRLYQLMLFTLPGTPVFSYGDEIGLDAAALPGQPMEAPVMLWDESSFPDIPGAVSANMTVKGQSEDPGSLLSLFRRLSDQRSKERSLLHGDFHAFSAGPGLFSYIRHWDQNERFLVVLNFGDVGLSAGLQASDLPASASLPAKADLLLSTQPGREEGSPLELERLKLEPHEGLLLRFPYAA", "assay": "Biacore and Octet"}, "[2]": {"biological_target": "cynomolgus monkey CD98 as used in SPR, Octet and ELISA (cynomolgus monkey) (UniProt I7GH21)", "assay": "Biacore and Octet"}}, "data": [{"substance": "humanized anti-CD98 monoclonal antibody IGN523", "values": [{"measurement": "Kd", "setting": "[1]", "value": "2 to 6", "unit": "nM"}, {"measurement": "Kd", "setting": "[2]", "value": "8 to 14", "unit": "nM"}]}]}
